In paper PMC11119474:

Molecular target: HFE-WT-flagM2 (homeostatic iron regulator protein) with β2M-flagM2 (UniProt Q30201)

- HFE level by Western blot in HepG2 PCSK9 KO cells expressing HFE/β2M after 18 h with conditioned medium containing WT PCSK9 (Figure 2A): 60 % reduction
Substance: PCSK9-WT-V5 (proprotein convertase subtilisin/kexin type 9, wild type) (from UniProt Q8NBP7 31-152; Q8NBP7 153-692) (natural protein)
